Measured values published in article PMC2189805.

Biological target: SETα (human (endogenous in HeLa)) (UniProt Q01105)
Experiment: co-IP

Sequence of UniProt Q01105 (Q01105 2-290): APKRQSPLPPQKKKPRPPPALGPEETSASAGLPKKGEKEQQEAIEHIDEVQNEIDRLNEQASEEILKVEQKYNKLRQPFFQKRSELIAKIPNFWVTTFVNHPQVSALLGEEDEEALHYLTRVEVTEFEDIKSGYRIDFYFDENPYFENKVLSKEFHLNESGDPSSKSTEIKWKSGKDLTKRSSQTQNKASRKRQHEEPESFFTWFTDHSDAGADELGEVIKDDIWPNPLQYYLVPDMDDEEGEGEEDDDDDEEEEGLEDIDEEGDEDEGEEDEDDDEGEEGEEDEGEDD

“HuR (endogenous) (from UniProt Q15717 1-326) (natural protein)” showed a percent of total cellular HuR bound of 5%.
